Experimental findings from PMC8298264, “Function of cofactor Akirin2 in the regulation of gene expression in model human neutrophil-like HL60 cells” (Bioscience Reports, 2021) are described below.

The experiment relates to human HL60 cells. In words: SWATH-MS proteomics, differential protein representation, akirin2 KO vs WT HL60 cells. It counts as cell-based. The settings on record: sheet "Under-represented in KO". Summed up:
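Read-out is label-free SWATH-MS protein area, globally normalized to total detected-protein area, with identifications held at 1% FDR against a library from information-dependent acquisition.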

B1: sp¦O95202¦LETM1_HUMAN (protein, UniProt O95202 116-739, looked up)
Mitochondrial proton/calcium …: DDSVVEKSLKSLKDKNKKLEEGGPVYSPPAEVVVKKSLGQRVLDELKHYYHGFRLLWIDTKIAARMLWRILNGHSLTRRERRQFLRICADLFRLVPFLVFVVVPFMEFLLPVAVKLFPNMLPSTFETQSLKEERLKKELRVKLELAKFLQDTIEEMALKNKAAKGSATKDFSVFFQKIRETGERPSNEEIMRFSKLFEDELTLDNLTRPQLVALCKLLELQSIGTNNFLRFQLTMRLRSIKADDKLIAEEGVDSLNVKELQAACRARGMRALGVTEDRLRGQLKQWLDLHLHQEIPTSLLILSRAMYLPDTLSPADQLKSTLQTLPEIVAKEAQVKVAEVEGEQVDNKAKLEATLQEEAAIQQEHREKELQKRSEVAKDFEPERVVAAPQRPGTEPQPEMPDTVLQSETLKDTAPVLEGLKEEEITKEEIDILSDACSKLQEQKKSLTKEKEELELLKEDVQDYSEDLQEIKKELSKTGEEKYVEESKASKRLTKRVQQMIGQIDGLISQLEMDQQAGKLAPANGMPTGENVISVAELINAMKQVKHIPESKLTSLAAALDENKDGKVNIDDLVKVIELVDKEDVHISTSQVAEIVATLEKEEKVEEKEKAKEKAEKEVAEVKS
Consider B1, for which, for the setting “KO vs WT HL60 cells”, the “Fold Change” value is 0.5097 and the “Log (Fold Change)” value is -0.2927.

B2: sp¦Q86UP2¦KTN1_HUMAN (protein, UniProt Q86UP2 1-1357, looked up)
Kinectin: MEFYESAYFIVLIPSIVITVIFLFFWLFMKETLYDEVLAKQKREQKLIPTKTDKKKAEKKKNKKKEIQNGNLHESDSESVPRDFKLSDALAVEDDQVAPVPLNVVETSSSVRERKKKEKKQKPVLEEQVIKESDASKIPGKKVEPVPVTKQPTPPSEAAASKKKPGQKKSKNGSDDQDKKVETLMVPSKRQEALPLHQETKQESGSGKKKASSKKQKTENVFVDEPLIHATTYIPLMDNADSSPVVDKREVIDLLKPDQVEGIQKSGTKKLKTETDKENAEVKFKDFLLSLKTMMFSEDEALCVVDLLKEKSGVIQDALKKSSKGELTTLIHQLQEKDKLLAAVKEDAAATKDRCKQLTQEMMTEKERSNVVITRMKDRIGTLEKEHNVFQNKIHVSYQETQQMQMKFQQVREQMEAEIAHLKQENGILRDAVSNTTNQLESKQSAELNKLRQDYARLVNELTEKTGKLQQEEVQKKNAEQAATQLKVQLQEAERRWEEVQSYIRKRTAEHEAAQQDLQSKFVAKENEVQSLHSKLTDTLVSKQQLEQRLMQLMESEQKRVNKEESLQMQVQDILEQNEALKAQIQQFHSQIAAQTSASVLAEELHKVIAEKDKQIKQTEDSLASERDRLTSKEEELKDIQNMNFLLKAEVQKLQALANEQAAAAHELEKMQQSVYVKDDKIRLLEEQLQHEISNKMEEFKILNDQNKALKSEVQKLQTLVSEQPNKDVVEQMEKCIQEKDEKLKTVEELLETGLIQVATKEEELNAIRTENSSLTKEVQDLKAKQNDQVSFASLVEELKKVIHEKDGKIKSVEELLEAELLKVANKEKTVQDLKQEIKALKEEIGNVQLEKAQQLSITSKVQELQNLLKGKEEQMNTMKAVLEEKEKDLANTGKWLQDLQEENESLKAHVQEVAQHNLKEASSASQFEELEIVLKEKENELKRLEAMLKERESDLSSKTQLLQDVQDENKLFKSQIEQLKQQNYQQASSFPPHEELLKVISEREKEISGLWNELDSLKDAVEHQRKKNNDLREKNWEAMEALASTEKMLQDKVNKTSKERQQQVEAVELEAKEVLKKLFPKVSVPSNLSYGEWLHGFEKKAKECMAGTSGSEEVKVLEHKLKEADEMHTLLQLECEKYKSVLAETEGILQKLQRSVEQEENKWKVKVDESHKTIKQMQSSFTSSEQELERLRSENKDIENLRREREHLEMELEKAEMERSTYVTEVRELKDLLTELQKKLDDSYSEAVRQNEELNLLKAQLNETLTKLRTEQNERQKVAGDLHKAQQSLELIQSKIVKAAGDTTVIENSDVSPETESSEKETMSVSLNQTVTQLQQLLQAVNQQLTKEKEHYQVLE
B2: under “akirin2 KO vs WT HL60 cells”, the “Fold Change” value amounted to 0.24 and the “Log (Fold Change)” value was -0.6198.

B3: sp¦P36776¦LONM_HUMAN (protein, UniProt P36776 68-959, looked up)
Lon protease homolog, …: FWEASSRGGGAFSGGEDASEGGAEEGAGGAGGSAGAGEGPVITALTPMTIPDVFPHLPLIAITRNPVFPRFIKIIEVKNKKLVELLRRKVRLAQPYVGVFLKRDDSNESDVVESLDEIYHTGTFAQIHEMQDLGDKLRMIVMGHRRVHISRQLEVEPEEPEAENKHKPRRKSKRGKKEAEDELSARHPAELAMEPTPELPAEVLMVEVENVVHEDFQVTEEVKALTAEIVKTIRDIIALNPLYRESVLQMMQAGQRVVDNPIYLSDMGAALTGAESHELQDVLEETNIPKRLYKALSLLKKEFELSKLQQRLGREVEEKIKQTHRKYLLQEQLKIIKKELGLEKDDKDAIEEKFRERLKELVVPKHVMDVVDEELSKLGLLDNHSSEFNVTRNYLDWLTSIPWGKYSNENLDLARAQAVLEEDHYGMEDVKKRILEFIAVSQLRGSTQGKILCFYGPPGVGKTSIARSIARALNREYFRFSVGGMTDVAEIKGHRRTYVGAMPGKIIQCLKKTKTENPLILIDEVDKIGRGYQGDPSSALLELLDPEQNANFLDHYLDVPVDLSKVLFICTANVTDTIPEPLRDRMEMINVSGYVAQEKLAIAERYLVPQARALCGLDESKAKLSSDVLTLLIKQYCRESGVRNLQKQVEKVLRKSAYKIVSGEAESVEVTPENLQDFVGKPVFTVERMYDVTPPGVVMGLAWTAMGGSTLFVETSLRRPQDKDAKGDKDGSLEVTGQLGEVMKESARIAYTFARAFLMQHAPANDYLVTSHIHLHVPEGATPKDGPSAGCTIVTALLSLAMGRPVRQNLAMTGEVSLTGKILPVGGIKEKTIAAKRAGVTCIVLPAENKKDFYDLAAFITEGLEVHFVEHYREIFDIAFPDEQAEALAVER
As for B3, for the setting “KO vs WT HL60 cells”, the “Fold Change” value was 0.5023 and the “Log (Fold Change)” value is listed as -0.2991.

B4: sp¦Q7Z3D6¦GLUCM_HUMAN (protein, UniProt Q7Z3D6 29-616, looked up)
D-glutamate cyclase, …: TSSMAGELRPASLVVLPRSLAPAFERFCQVNTGPLPLLGQSEPEKWMLPPQGAISETRMGHPQFWKYEFGACTGSLASLEQYSEQLKDMVAFFLGCSFSLEEALEKAGLPRRDPAGHSQTTVPCVTHAGFCCPLVVTMRPIPKDKLEGLVRACCSLGGEQGQPVHMGDPELLGIKELSKPAYGDAMVCPPGEVPVFWPSPLTSLGAVSSCETPLAFASIPGCTVMTDLKDAKAPPGCLTPERIPEVHHISQDPLHYSIASVSASQKIRELESMIGIDPGNRGIGHLLCKDELLKASLSLSHARSVLITTGFPTHFNHEPPEETDGPPGAVALVAFLQALEKEVAIIVDQRAWNLHQKIVEDAVEQGVLKTQIPILTYQGGSVEAAQAFLCKNGDPQTPRFDHLVAIERAGRAADGNYYNARKMNIKHLVDPIDDLFLAAKKIPGISSTGVGDGGNELGMGKVKEAVRRHIRHGDVIACDVEADFAVIAGVSNWGGYALACALYILYSCAVHSQYLRKAVGPSRAPGDQAWTQALPSVIKEEKMLGILVQHKVRSGVSGIVGMEVDGLPFHNTHAEMIQKLVDVTTAQV
As for B4, under “KO vs WT HL60 cells”, the “Fold Change” value came out at 0.5156 and the “Log (Fold Change)” value was -0.2877.

B5: sp¦Q9Y617¦SERC_HUMAN (protein, UniProt Q9Y617 1-370, looked up)
Phosphoserine aminotransferase: MDAPRQVVNFGPGPAKLPHSVLLEIQKELLDYKGVGISVLEMSHRSSDFAKIINNTENLVRELLAVPDNYKVIFLQGGGCGQFSAVPLNLIGLKAGRCADYVVTGAWSAKAAEEAKKFGTINIVHPKLGSYTKIPDPSTWNLNPDASYVYYCANETVHGVEFDFIPDVKGAVLVCDMSSNFLSKPVDVSKFGVIFAGAQKNVGSAGVTVVIVRDDLLGFALRECPSVLEYKVQAGNSSLYNTPPCFSIYVMGLVLEWIKNNGGAAAMEKLSSIKSQTIYEIIDNSQGFYVCPVEPQNRSKMNIPFRIGNAKGDDALEKRFLDKALELNMLSLKGHRSVGGIRASLYNAVTIEDVQKLAAFMKKFLEMHQL
As for B5, for the setting “KO vs WT HL60 cells”, the “Fold Change” value is 0.4967 and the “Log (Fold Change)” value is recorded as -0.3039.
